Source: paper PMC2171850

Target: Hrp65, endogenous in C. tentans tissue culture cells (C. tentans (endogenous in C. tentans tissue culture cells))
Test: co-IP

## Hrp59, endogenous in C. tentans tissue culture cells (natural protein)
  percent of the association that is RNase-sensitive: 50%
